Test results published in patent US8784821 (Amgen, dated 2014).

T1: recombinant soluble extracellular domain of the human CD3 epsilon chain with His6 tag, expressed alone (human)
T1 construct: also called recombinant CD3-epsilon antigen; rCD3-epsilon
T1 chain: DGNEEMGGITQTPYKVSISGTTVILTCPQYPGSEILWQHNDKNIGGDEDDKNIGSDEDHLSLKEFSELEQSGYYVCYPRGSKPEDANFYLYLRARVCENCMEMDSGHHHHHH


Key:
BSA (blocking agent) = biological target: T2, BSA (blocking agent) (UniProt P02769 25-607); assay: ELISA on uncoated plates blocked with PBS 3% BSA, periplasmic preparation
T2 construct: Specificity control of the ELISA
T2 sequence (P02769 25-607 limits assumed): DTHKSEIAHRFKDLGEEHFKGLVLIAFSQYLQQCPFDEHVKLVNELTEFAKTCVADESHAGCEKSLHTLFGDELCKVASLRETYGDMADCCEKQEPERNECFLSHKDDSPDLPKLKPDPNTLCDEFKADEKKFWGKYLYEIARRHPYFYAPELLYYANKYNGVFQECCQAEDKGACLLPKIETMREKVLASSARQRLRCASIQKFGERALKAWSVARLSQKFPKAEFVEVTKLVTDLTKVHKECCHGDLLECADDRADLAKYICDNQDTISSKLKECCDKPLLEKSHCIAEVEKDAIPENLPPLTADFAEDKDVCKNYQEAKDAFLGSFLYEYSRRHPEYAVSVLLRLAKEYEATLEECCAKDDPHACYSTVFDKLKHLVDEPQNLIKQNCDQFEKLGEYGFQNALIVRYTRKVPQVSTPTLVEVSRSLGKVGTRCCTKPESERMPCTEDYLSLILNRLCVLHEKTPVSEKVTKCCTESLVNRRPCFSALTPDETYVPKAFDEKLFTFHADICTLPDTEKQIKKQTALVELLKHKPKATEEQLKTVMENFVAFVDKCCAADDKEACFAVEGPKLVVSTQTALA
Procedure: (§1) FIG. 15: ELISA-analysis of periplasmic preparations containing Flag-tagged scFv protein fragments from selected clones. […] Detection was performed by a monoclonal anti-Flag antibody followed by a peroxidase-conjugated polyclonal goat anti-mouse antibody. The ELISA was developed by an ABTS-substrate solution as described in example 3. The OD-values (Y-axis) were measured at 405 nm by an ELISA-reader. Clone numbers are presented on the X-axis, where the first number of the clone number indicates the round of panning in which the respective clone was obtained, while the second number indicates the respective clone of this round. Periplasmic preparation from cells producing the anti-CD3 scFv L2K was included, as well as the purified anti-CD3 antibodies UCHT1, SP34 and OKT3 (concentration of each 1 µg/ml).
(§2) ELISA experiments were carried out by coating the recombinant CD3 epsilon on wells of 96 well plastic plates (Nunc, maxisorb) typically at 4° C. over night. […] After removal of the blocking solution, PPPs and control solutions were added to the wells and incubated for typically one hour at room temperature. The wells were then washed three times with PBS/0.05% Tween 20. Detection of scFvs and control antibodies bound to immobilized antigen was Carried out using a monoclonal murine anti-His6 or anti FLAG-tag antibody (Qiagen anti-PentaHis and M2 anti Flag Sigma, typically each at a final concentration of 1 µg/ml PBS) detected with a peroxidase-labeled polyclonal goat anti- (mouse Fab-fragment) antibody (Dianova, 1 µg/ml PBS). The signal was developed by adding ABTS substrate solution and measured at a wavelength of 405 nm. Unspecific binding of the test-samples to the blocking agent was examined by carrying out the identical assays with the identical reagents and identical timing on ELISA plates which were not coated but blocked with BSA, only.

[1] = biological target: T3, human CD3 complex, native, on CD3-positive human T cells (human, UniProt P07766 23-207; P09693 23-182; P04234 22-171); assay: conclusion from ELISA (FIGS. 14 and 15) and flow cytometry on Jurkat cells
T3 construct: whole, on cells; Presented as part of the TCR/CD3 complex on Jurkat cells (flow cytometry) and on the CD4-positive T cell clone CB15 (cytotoxicity assays); also called CD3 on Jurkat cells; CD3+ Jurkat cells
Target sequence in this assay (P07766 23-207, chain 1 of 3): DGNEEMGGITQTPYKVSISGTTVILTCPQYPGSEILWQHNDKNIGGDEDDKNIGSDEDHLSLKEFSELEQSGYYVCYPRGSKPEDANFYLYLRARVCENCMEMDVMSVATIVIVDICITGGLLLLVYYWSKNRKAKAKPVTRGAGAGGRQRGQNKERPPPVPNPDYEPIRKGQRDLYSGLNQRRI
Target sequence in this assay (P09693 23-182, chain 2 of 3): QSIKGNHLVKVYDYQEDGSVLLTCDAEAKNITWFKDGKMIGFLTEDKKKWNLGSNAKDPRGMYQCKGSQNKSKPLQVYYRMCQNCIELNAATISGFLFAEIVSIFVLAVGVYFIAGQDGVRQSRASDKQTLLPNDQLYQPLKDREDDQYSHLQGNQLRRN
Target sequence in this assay (P04234 22-171, chain 3 of 3): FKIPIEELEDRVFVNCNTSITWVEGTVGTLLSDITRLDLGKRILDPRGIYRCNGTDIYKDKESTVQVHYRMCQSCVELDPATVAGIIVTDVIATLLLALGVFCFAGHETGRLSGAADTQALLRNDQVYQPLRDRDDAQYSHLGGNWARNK

[2] = biological target: T1, recombinant soluble extracellular …; assay: ELISA on coated recombinant CD3-epsilon, periplasmic preparation, anti-Flag detection
Procedure: as §1, with “14: CD3-specific” for “15:”, “Example” for “example”
as §2

[3] = biological target: T3, human CD3 complex, native, on …; assay: flow cytometry screening on Jurkat cells, periplasmic preparation
Procedure: Periplasmic preparations of soluble scFv protein fragments were added to CD3-positive Jurkat cells. Detection was performed by a 1.0 monoclonal anti-Flag antibody followed by a PE-labeled polyclonal anti-mouse antibody. ScFvs binding to cells was measured by an increase in fluorescence intensity as compared to cells that were incubated with PBS alone: Fluorescence intensity is blotted on the X-axis, the number of events is blotted on the Y-axis. The negative control is shown in black, the respective scFvs are shown in gray. Shifting to the right indicates positive binding to the cells. Periplasmic preparation from cells producing the anti-CD3 scFv L2K was included, as well as the purified anti-CD3 antibodies UCHT1, SP34 and OKT3 (concentration of each 5 µg/ml).
Target sequence in this assay (P09693 23-182, chain 2 of 2): as the sequence (P09693 23-182, chain 2 of 3) above
Target sequence in this assay (P04234 22-171, chain 3 of 2): as the sequence (P04234 22-171, chain 3 of 3) above

| Binder | binding result (BSA (blocking agent)) | binding result [1] | binding result [2] | binding result [3] |
| --- | --- | --- | --- | --- |
| human anti-human CD3 scFv 3-271 (FLAG-tagged) (scFv, VH-(G4S1)3-VL scFv from huLIB-STE, tested as crude periplasmic preparation) scFv: ELQLVEWGAGLLKPSETLSLTCAVYGGSFSGYYWSWIRQPPGKGLEWIGEINHSGSTNYNPSLKSRVTISVDTSKNQFSLKLSSVTAADTAVYYCARGPDRMGHGFDIWGQGTMVTVSSGGGGSGGGGSGGGGSELQMTQSPSSLSASVGDRVTITCRASQSISSYLNWYQQKSGKAPKLLIYAASSLQSGVPSRFSGSGSGTDFTLTISSLQPEDFATYYCQQSYSSPWTFGQGTKVEIKTGDYKDDDDK | no binding |  |  |  |
| human anti-human CD3 scFv 3-106 (FLAG-tagged) (scFv, VH-(G4S1)3-VL scFv from huLIB-ST, tested as crude periplasmic preparation) scFv: ELQLVESGGGVVQPGRSLRLSCAASGFTFSSYGMHWVRQAPGKGLEWVAVISYDGSNKYYADSVKGRFTISRDNSKNTLYLQMNSLRSEDTAVYYCARLSPYCTNGVCWDAFDIWGQGTMVTVSSGGGGSGGGGSGGGGSELQMTQSPSSLSASVGDRVSITCRASQTISNYLNWYQLKPGKAPKLLIYAASTLQSEVPTRFSGSGSGTDFTLTISGLHPEDFATYYCQQFNSYPRTFGQGTKVEIKTGDYKDDDDK | no binding | binds | binds |  |
| human anti-human CD3 scFv 3-550 (FLAG-tagged) (scFv, VH-(G4S1)3-VL scFv from huLIB-STE, tested as crude periplasmic preparation) scFv: ELQLVESGPGLVKPSQTLSLTCAISGDSVSSNSAAWNWIRQSPSRGLEWLGRTYYRSKWYNDYAVSVKSRITINPDTSKNQFSLQLNSVTPEDTAVYYCARDRRRIAARQYYGMDVWGQGTTVTVSSGGGGSGGGGSGGGGSELVLTQSPGTLSLSPGERATLSCRASQSVSSNYLAWYQQKPGQAPRLLIYGASSRATGIPDRFSGSGSGTDFTLTISSLQPEDVATYYCQKYNSAPLTFGGGTKVEIKTGDYKDDDDK | no binding |  | binds | binds |
| human anti-human CD3 scFv 4-48 (FLAG-tagged) (scFv, VH-(G4S1)3-VL scFv from huLIB-STE, tested as crude periplasmic preparation; also called clone 4-48) scFv: ELQLVESGPVLVKPTDTLTLTCTVSGFSLNNPRMGVSWIRQPPGKTLEWLAHIFPSDAKAHSASLKSRLTISKDTSKSQVVPTMTNMDPVDTATYYCARILGEYYPPAWFDPWGQGTLVTVSSGGGGSGGGGSGGGGSELVMTQSPDSLAVSLGERATINCKSSQSVLYSSNNKNYLAWYQQKPGQPPKLLIYWASTRESGVPDRFSGSGSGTDFTLTISSLQAEDVAVYYCQQYLKIPYTFGQGTKVEIKTGDYKDDDDK | no binding |  | binds | binds |
| human anti-human CD3 scFv 3-190 (FLAG-tagged) (scFv, VH-(G4S1)3-VL scFv from huLIB-STE, tested as crude periplasmic preparation) scFv: ELQLVEWGAGLLKPSETLSLTCAVYGGSFSGYYWSWIRQPPGKGLEWIGEINHSGSTNYNPSLKSRVTISVDTSKNQFSLKLSSVTAADTAVYYCARGRGRFLGWLLGGSNWFDPWGQGTLVTVSSGGGGSGGGGSGGGGSELVMTQSPSSLSASVGDRVTITCRASQGISNYLNWYQQKPGKAPKLLIYDASNLETGVPSRFSGSGSGTDFTLTISSLQPEDFATYYCQQSYSTPYTFGQGTKVDIKTGDYKDDDDK | no binding |  | binds | binds |
| human anti-human CD3 scFv 4-10 (FLAG-tagged) (scFv, VH-(G4S1)3-VL scFv from huLIB-ST, tested as crude periplasmic preparation; Flag-tag put at the C-terminus because it replaces the vector's His6-tag; also called construct 4-10) scFv: ELQLVESGGGLVQPGGSLRLSCAASGFTFSSYAMGWVRQAPGKGLEWVSAVSGSGGSTYYADSVKGRFTISRDNSKNTLYLQMNSLRAEDTAVYYCAKAKFLGHYYGMDVWGQGTTVTVSSGGGGSGGGGSGGGGSELQMTQSPSSLSASVGDRVTITCRASQSISSYLNWYQQKPGKAPKLLIYAASSLQSGVPSRFSGSGSGTEFTLTISSLQPEDFATYYCLQHNAYPYTFGQGTKVEIKTGDYKDDDDK | no binding | binds | binds |  |
| human anti-human CD3 scFv 3-114 (FLAG-tagged) (scFv, VH-(G4S1)3-VL scFv from huLIB-ST, tested as crude periplasmic preparation) scFv: ELQLVESGGGLVKPGRSLRLSCTASGFTFGDYAMSWFRQAPGKGLEWVGFIRSKAYGGTTEYAASVKGRFTISRDDSKSIAYLQMNSLKTEDTAVYYCTPQLWLLQDAFDIWGQGTMVTVSSGGGGSGGGGSGGGGSELQMTQSPSSLSASVGDRVTITCRASQGISNYLAWYQQKPGKVPKLLIYAASTLQSGVPSRFSGSGSGTDFTLTISSLQPEDFATYYCQQSYSTPPTFGQGTKLEIKTGDYKDDDDK | no binding | binds | binds |  |
| human anti-human CD3 scFv 3-148 (FLAG-tagged) (scFv, VH-(G4S1)3-VL scFv from huLIB-ST, tested as crude periplasmic preparation) scFv: ELQLVESGPGLVKPSGTLSLTCAVSGGSISSRNWWSWVRQPPGKGLEWIGDIYHSGSTNYNPSLKSRVTISVDKSKNQFSLKLSSVTAADTAVYYCASGYTSCRDAFDIWGQGTMVTVSSGGGGSGGGGSGGGGSELVMTQSPSSLSASVGDRVTITCRASQGIGNYLAWYQQKPGQPPKMLIYWASIRESGVPDRFSGSGSGTDFTLTISSLQAEDVAVYYCQQYYSNPQTFGQGTKVEIKTGDYKDDDDK | no binding | binds | binds |  |
